Measurements from publication PMC12865202.

Target: Chicken CapZ (full length α/β) (chicken) (UniProt P13127)
Test: ITC

RavB (full length, purified) (natural protein)
Kd: 10.8 nM
